# Data from patent publication US20220306744A1 (CRESCENDO BIOLOGICS, published 2022).
# Where a chain is given by its changes, count along the chain named.
# B1: 1.82b (VHH)
# VHH: EVQLVESGGGLVKPGGSLRLSCAASGFTFSDTSMTWMRQAPGKGLEWVSYISSGGGVKFYTDSVKGRFTISRDNAKNSLYLQMNSLRAEDTAVYYCAREAPLRLGESPHDAFDISGQGTMVTVSS
# B2: 1.97b (VHH)
# VHH: B1 VHH with T32I, T61A
# B3: 1.90b (VHH)
# VHH: B1 VHH with T32V, T61A
# B4: 1.88b (VHH)
# VHH: B1 VHH with T32R
# B5: 1.103b (VHH)
# VHH: B1 VHH with T32E, M34Q
# B6: 1.85b (VHH)
# VHH: B1 VHH with T32Y
# B7: 1.99b (VHH)
# VHH: B1 VHH with T32R, T61A
# B8: 1.98b (VHH)
# VHH: B1 VHH with T32K, T61A
# B9: 1.83b (VHH)
# VHH: B1 VHH with T32E, M37F
# B10: 1.112b (VHH)
# VHH: B1 VHH with T32E, M34I, T61A
# B11: 1.107b (VHH)
# VHH: B1 VHH with T32E, M34Y
# B12: 1.113b (VHH)
# VHH: B1 VHH with T32E, M34S, T61A
# B13: 1.96b (VHH)
# VHH: B1 VHH with T61A
# B14: 1.86b (VHH)
# VHH: B1 VHH with T32A
# B15: 1.109b (VHH)
# VHH: B1 VHH with T32E, M34F, T61A
# B16: 1.100b (VHH)
# VHH: B1 VHH with T32L, T61A
# B17: 1.108b (VHH)
# VHH: B1 VHH with T32E, M34A, T61A
# B18: 1.84b (VHH)
# VHH: B1 VHH with T32E
# B19: 1.114b (VHH)
# VHH: B1 VHH with T32E, M34H, T61A
# B20: 1.89b (VHH)
# VHH: B1 VHH with T32Y, T61A
# B21: 1.92b (VHH)
# VHH: B1 VHH with T32E, T61A
# notes: also called Humabody 1.92b
# B22: 1.102b (VHH)
# VHH: B1 VHH with T32E, M34V
# B23: 1.101b (VHH)
# VHH: B1 VHH with T32F, T61A
# B24: 1.93b (VHH)
# VHH: B1 VHH with T32A, T61A
# B25: 1.110b (VHH)
# VHH: B1 VHH with T32E, M34N, T61A
# B26: 1.115b (VHH)
# VHH: B1 VHH with T32E, M34G, T61A
# B27: 1.105b (VHH)
# VHH: B1 VHH with T32E, M34L
# B28: 1.94b (VHH)
# VHH: B1 VHH with T32W, T61A
# B29: 1.87b (VHH)
# VHH: B1 VHH with T32K
# B30: 1.111b (VHH)
# VHH: B1 VHH with T32E, M34W, T61A
# B31: 1.106b (VHH)
# VHH: B1 VHH with T32E, M34K
# B32: 1.91b (VHH)
# VHH: B1 VHH with T32Q, T61A
# B33: 1.104b (VHH)
# VHH: B1 VHH with T32E, M34F
# B34: 1.95b (VHH)
# VHH: B1 VHH with T32G, T61A
# B35: 1.2a (VHH)
# VHH: EVQLVESGGGLVQPGRSLRLSCAASGFTFDDYAMHWVRQAPGKDLEWVSGISWNGGSMGYAASVKGRFTISRDNAKNSLYLQMNSLRAEDTALYYCVKDKGPGLIGSTADYYGLDVWGQGTTVTVSS
# B36: 1.8a (VHH)
# VHH: B35 VHH with D44G, G55S, A62D, G66D, Y112H
# B37: 1.4a (VHH)
# VHH: B35 VHH with V5L, D30A, D44G, L45R, A62E, T91S, I105T, S107T, L114M
# B38: 1.30a (VHH)
# VHH: B35 VHH with M34G, K98R, D99E, I105T, V116A, T122M
# B39: 1.29a (VHH)
# VHH: B35 VHH with G55S, A62D, K98R, D99E, I105T, T122M
# B40: 1.24a (VHH)
# VHH: B35 VHH with G55S, K98R, D99E, I105T, V116A, T122M
# B41: 1.13a (VHH)
# VHH: B35 VHH with E1Q, K76Q
# B42: 1.14a (VHH)
# VHH: B35 VHH with D31G, D44G, L45R, G55S, A62E, T91S, I105T, L114M
# B43: 1.11a (VHH)
# VHH: B35 VHH with V5L, L11F, L20I, A62E, Q82K, A88V
# B44: 1.5a (VHH)
# VHH: B35 VHH with D44G, A62D, G66D, S85R, Y112H
# B45: 1.21a (VHH)
# VHH: B35 VHH with K98R, D99E, I105T, T122M
# B46: 1.12a (VHH)
# VHH: B35 VHH with E1Q, D44G, L45R, A62D, G66D, I105T, Y112H, L114M
# B47: 1.16a (VHH)
# VHH: B35 VHH with E1Q, D44G, L45R, A62E, T91S, L114M
# B48: 1.10a (VHH)
# VHH: B35 VHH with D30A, D44G, L45R, A62E, T91S, I105T, S107T, L114M
# B49: 1.3a (VHH)
# VHH: B35 VHH with V5L, D44G, L45R, G55S, A62D, G66D, Y112H
# B50: 1.9a (VHH)
# VHH: B35 VHH with L11C, L20I, D44G, L45R, A62E, T91S, L114M
# B51: 1.18a (VHH)
# VHH: B35 VHH with E1Q
# B52: 1.23a (VHH)
# VHH: B35 VHH with G55S, K98R, D99E, I105T, T122M
# B53: 1.25a (VHH)
# VHH: B35 VHH with M58Q, K98R, D99E, I105T, V116A, T122M
# B54: 1.27a (VHH)
# VHH: B35 VHH with M58R, K98R, D99E, I105T, V116A, T122M
# B55: 1.28a (VHH)
# VHH: B35 VHH with G55A, K98R, D99E, I105T, V116A, T122M
# B56: 1.22a (VHH)
# VHH: B35 VHH with K98R, D99E, I105T, V116A, T122M
# Target: T1, human PD-1 expressed on cells (CHO TREX human PD1 cell line, full-length human PD-1 sequence) (human, UniProt Q15116 21-288)
# T1 construct: Also used for human PD-1 on Jurkat reporter cells, on PathHunter cells and on PHA-stimulated human CD4+ T cells; also called CHO human PD1 cells; CHO human PD-1 cells
# Test: worded summary of the screens
# T1 sequence (Q15116 21-288): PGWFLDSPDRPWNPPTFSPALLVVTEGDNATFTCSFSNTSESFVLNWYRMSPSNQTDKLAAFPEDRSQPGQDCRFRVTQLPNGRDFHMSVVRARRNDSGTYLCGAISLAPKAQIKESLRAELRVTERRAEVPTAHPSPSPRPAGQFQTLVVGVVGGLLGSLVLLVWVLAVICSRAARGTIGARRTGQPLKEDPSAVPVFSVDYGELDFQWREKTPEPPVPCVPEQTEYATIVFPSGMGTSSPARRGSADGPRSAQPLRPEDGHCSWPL
row,Binder,binding result
1,B1,binds
2,B2,binds
3,B3,binds
4,B4,binds
5,B5,binds
6,B6,binds
7,B7,binds
8,B8,binds
9,B9,binds
10,B10,binds
11,B11,binds
12,B12,binds
13,B13,binds
14,B14,binds
15,B15,binds
16,B16,binds
17,B17,binds
18,B18,binds
19,B19,binds

row,Binder,binding result
1,B20,binds
2,B21,binds
3,B22,binds
4,B23,binds
5,B24,binds
6,B25,binds
7,B26,binds
8,B27,binds
9,B28,binds
10,B29,binds
11,B30,binds
12,B31,binds
13,B32,binds
14,B33,binds
15,B34,binds
16,B35,binds
17,B36,binds
18,B37,binds
19,B38,binds

row,Binder,binding result
1,B39,binds
2,B40,binds
3,B41,binds
4,B42,binds
5,B43,binds
6,B44,binds
7,B45,binds
8,B46,binds
9,B47,binds
10,B48,binds
11,B49,binds
12,B50,binds
13,B51,binds
14,B52,binds
15,B53,binds
16,B54,binds
17,B55,binds
18,B56,binds
